Measured values from article PMC7465787.

Key:
Cysteine-SpyCatcher [1] = test: pull-down; Cys-SpyCatcher on magnetic beads (50 µl, 20 mg/ml) mixed with 200 µl crude leaf filtrate of plants expressing Plastid-SpyTag; 30 min at 4 °C, chloroplast isolation buffer (10 mM HEPES-KOH pH 7.0, 0.33 M sorbitol), three washes; chloroplasts on beads read by CLSM and counted; wild type filtrate as control
Cysteine-SpyCatcher [2] = target: Cysteine-SpyCatcher
Cysteine-SpyCatcher [3] = test: pull-down; Cys-SpyCatcher on magnetic beads (50 µl, 20 mg/ml) mixed with 500 µl crude leaf filtrate of plants expressing Mito-SpyTag; 30 min at 4 °C, mitochondria isolation buffer (30 mM MOPS pH 7.5, 0.3 M mannitol, 1 mM EDTA), three washes; mitochondria stained with MitoTracker Orange, read by CLSM and counted; wild type filtrate as control

Row | Substance | percent of beads that carry a chloroplast (Cysteine-SpyCatcher [1]) | enrichment of mitochondrial fumarase activity in the bead fraction compared to the crude input fraction (Cysteine-SpyCatcher [2]) | percent of beads that carry a bound mitochondrion (Cysteine-SpyCatcher [3])
1 | Plastid-SpyTag (OEP7-SpyTag) | 22.8% |  | 
2 | Mito-SpyTag (NtHxk1-SpyTag) (from UniProt Q9SEK2 1-44) |  | 5.4 fold | 31.1%
